From article PMC5213842, “Characterization and Crystal Structure of a Robust Cyclohexanone Monooxygenase” (Angewandte Chemie (International Ed. in English), 2016)

Experiments:
O=C1CCC1 = assay: purified protein
O=C1CC2C=CCC12 = assay: purified protein
O=C1CCCCC1 = assay: purified protein
TmCHMO = molecular target: T1, TmCHMO (Thermocrispum municipale, UniProt A0A1L1QK39); parameters: steady-state kinetics, NADPH consumption followed by absorbance at 340 nm; settings: 150 uM NADPH, pH 7.0, 25 °C; substrate
T1 construct: purified recombinant enzyme (E. coli used as expression host for whole-cell work)
T1 sequence (A0A1L1QK39 1-541): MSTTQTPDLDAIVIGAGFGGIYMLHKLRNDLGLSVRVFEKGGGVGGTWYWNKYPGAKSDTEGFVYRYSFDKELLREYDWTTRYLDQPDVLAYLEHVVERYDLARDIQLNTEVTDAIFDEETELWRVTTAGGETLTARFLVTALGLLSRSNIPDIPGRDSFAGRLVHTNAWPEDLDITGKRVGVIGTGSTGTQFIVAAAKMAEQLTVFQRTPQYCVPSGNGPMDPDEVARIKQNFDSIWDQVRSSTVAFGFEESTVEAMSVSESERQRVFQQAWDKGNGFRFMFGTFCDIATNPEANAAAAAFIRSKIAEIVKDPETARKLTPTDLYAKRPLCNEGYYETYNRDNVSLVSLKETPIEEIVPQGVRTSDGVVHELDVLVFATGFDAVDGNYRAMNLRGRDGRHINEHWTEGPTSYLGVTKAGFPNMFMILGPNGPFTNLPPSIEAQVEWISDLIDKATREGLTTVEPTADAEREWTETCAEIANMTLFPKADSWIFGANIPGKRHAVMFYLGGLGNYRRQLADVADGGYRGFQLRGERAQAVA
Protocol: Steady-State Kinetics. Steady-state kinetic parameters for purified TmCHMO and AcCHMO were determined using a V-660 spectrophotometer (Jasco). Enzyme (0.02-4 μM), NADPH (150 μM), and increasing substrate concentrations were reacted in air-saturated 50 mM Tris-HCl at pH 7.0 and 25 °C. The rate of NADPH consumption was determined by following the decrease in absorbance at 340 nm (ɛ340 = 6.22 mM-1 cm-1 ). The initial rates of the reactions were plotted as a function of the substrate concentrations. […] Among the assayed compounds (Figure S3), only progesterone and cyclopentadecanone (50 μM) were not substrates of either enzyme based on the NADPH consumption assay. 19 4. EXPERIMENTAL SECTION Materials. NADPH was acquired from Jülich Chiral Solutions GmbH. All other materials were acquired from Sigma-Aldrich unless otherwise specified. Cloning of TmCHMO and BVMOs Purification. The amino acid sequence of a putative CHMO from the thermophilic actinomycete T. municipale DSM 44069 was retrieved from the NCBI database (http://www.ncbi.nlm.nih.gov). This organism is able to grow at 28-60 °C.[8] The TmCHMO sequence was found by carrying out a BLASTP (http://blast.ncbi.nlm.nih.gov/Blast.cgi) using the amino acid sequence of AcCHMO as a query sequence. A codon-optimized TmCHMO gene was synthetized and cloned into pUC57 plasmid by GenScript. […]

TfPAMO = molecular target: T2, TfPAMO (Thermobifida fusca, UniProt Q47PU3); assay: small-scale conversion; assay type: biochemical; settings: racemic substrate; enzyme preparation not given
T2 construct: gene pamO
T2 sequence (Q47PU3 whole entry): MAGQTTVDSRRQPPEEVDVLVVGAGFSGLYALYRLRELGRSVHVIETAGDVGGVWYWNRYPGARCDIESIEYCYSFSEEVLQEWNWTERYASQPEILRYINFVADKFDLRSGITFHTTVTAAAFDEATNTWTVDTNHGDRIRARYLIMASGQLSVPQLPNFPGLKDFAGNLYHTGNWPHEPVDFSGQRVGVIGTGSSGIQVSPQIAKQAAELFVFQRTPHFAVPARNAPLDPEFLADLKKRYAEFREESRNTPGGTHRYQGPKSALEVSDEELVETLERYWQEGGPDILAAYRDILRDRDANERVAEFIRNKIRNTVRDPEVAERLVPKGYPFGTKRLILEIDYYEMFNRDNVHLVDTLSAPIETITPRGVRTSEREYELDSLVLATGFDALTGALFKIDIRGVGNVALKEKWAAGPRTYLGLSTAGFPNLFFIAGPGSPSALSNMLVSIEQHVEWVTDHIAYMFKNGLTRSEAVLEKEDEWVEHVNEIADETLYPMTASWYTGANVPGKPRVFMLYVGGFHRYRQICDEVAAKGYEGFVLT

steady-state kinetics [1] = substrate: O=C1CC2C=CCC12; assay: steady-state kinetics; assay type: biochemical, Thermocrispum municipale
steady-state kinetics [2] = substrate: O=C1CCC1; assay: steady-state kinetics; assay type: biochemical, Thermocrispum municipale
steady-state kinetics [3] = substrate: O=C1CCCCC1; assay: steady-state kinetics; assay type: biochemical, Thermocrispum municipale
[4] = substrate: CC(=O)Cc1ccccc1; assay: purified protein, by the assay type; parameters: steady-state kinetics, NADPH consumption followed by absorbance at 340 nm; settings: pH 7.0; 25.0 °C
Protocol: (§1) Steady-State Kinetics. Steady-state kinetic parameters for purified TmCHMO and AcCHMO were determined using a V-660 spectrophotometer (Jasco). Enzyme (0.02-4 μM), NADPH (150 μM), and increasing substrate concentrations were reacted in air-saturated 50 mM Tris-HCl at pH 7.0 and 25 °C. The rate of NADPH consumption was determined by following the decrease in absorbance at 340 nm (ɛ340 = 6.22 mM-1 cm-1 ). The initial rates of the reactions were plotted as a function of the substrate concentrations. […] Among the assayed compounds (Figure S3), only progesterone and cyclopentadecanone (50 μM) were not substrates of either enzyme based on the NADPH consumption assay. 19 4. EXPERIMENTAL SECTION Materials. NADPH was acquired from Jülich Chiral Solutions GmbH. All other materials were acquired from Sigma-Aldrich unless otherwise specified. Cloning of TmCHMO and BVMOs Purification. The amino acid sequence of a putative CHMO from the thermophilic actinomycete T. municipale DSM 44069 was retrieved from the NCBI database (http://www.ncbi.nlm.nih.gov). This organism is able to grow at 28-60 °C.[8] The TmCHMO sequence was found by carrying out a BLASTP (http://blast.ncbi.nlm.nih.gov/Blast.cgi) using the amino acid sequence of AcCHMO as a query sequence. A codon-optimized TmCHMO gene was synthetized and cloned into pUC57 plasmid by GenScript. The TmCHMO gene was subcloned using standard methods into the pCRE2 plamid[9] with XhoI and HindIII restriction sites at the 5’ end and 3’ end, respectively. The resulting plasmid is a pBAD vector harboring a gene encoding TmCHMO fused to the C-terminus of a thermostable variant of phosphite dehydrogenase (PTDH). A histidine tag at the N-terminus of the PTDH is also included in this construct. The same construct containing either the AcCHMO gene or the TfPAMO gene, instead of the TmCHMO gene, was carried out for a previous study[9] and used here to obtain the corresponding fusion proteins. The TmCHMO gene was also subcloned into a pBAD plasmid containing the SUMO (small ubiquitin-related modifier) gene with a N-terminal histidine tag (pBAD-His-Tag-SUMO-TmCHMO).

[5] = substrate: CCCCCCC(C)=O; assay: purified protein, by the assay type; parameters: steady-state kinetics, NADPH consumption followed by absorbance at 340 nm; settings: pH 7.0; 25.0 °C
Protocol: as §1

[6] = substrate: CCCCCCCCC(C)=O; assay: purified protein, by the assay type; parameters: steady-state kinetics, NADPH consumption followed by absorbance at 340 nm; settings: pH 7.0; 25.0 °C
Protocol: as §1

[7] = substrate: CC(=O)c1ccccc1; assay: purified protein, by the assay type; parameters: steady-state kinetics, NADPH consumption followed by absorbance at 340 nm; settings: pH 7.0; 25.0 °C
Protocol: as §1

[8] = substrate: CCC(C)=O; assay: purified protein, by the assay type; parameters: steady-state kinetics, NADPH consumption followed by absorbance at 340 nm; settings: pH 7.0; 25.0 °C
Protocol: as §1

[9] = substrate: O=C1CCCC1; assay: purified protein, by the assay type; parameters: steady-state kinetics, NADPH consumption followed by absorbance at 340 nm; settings: pH 7.0; 25.0 °C
Protocol: as §1

AcCHMO (Acinetobacter johnsonii)
kcat (O=C1CCC1): 4 s⁻¹
kcat (O=C1CC2C=CCC12): 4 s⁻¹
Km (O=C1CCCCC1): 9 µM
kcat (O=C1CCCCC1): 6 s⁻¹

CSc1ccccc1 [thioanisole]
Km (TmCHMO): < 60 µM

O=C1CC2C=CCC12 (racemic) [bicyclo[3.2.0]hept‐2‐en‐6‐one]
small-scale conversion (TfPAMO): By contrast, TfPAMO produced all four possible lactones

B1: TmCHMO (Thermocrispum municipale DSM 44069) (protein)
chain: T1 sequence (A0A1L1QK39 1-541)
notes: purified recombinant enzyme (E. coli used as expression host for whole-cell work)
kcat (steady-state kinetics [1]): 2 s⁻¹
kcat (steady-state kinetics [2]): 2 s⁻¹
kcat (steady-state kinetics [3]): 2 s⁻¹
Km [4]: 200 µM
Km [5]: 100 µM
Km [6]: 50 µM
Km [7]: 5000 µM
Km [8]: 500 µM
Km [9]: 20 µM
